B1: SEQ ID NO 923 (designed binder)
chain: MGSWVNFKTHLARIKVHLEALGGSEAELALFEHDIANFEQVLQQYKGKGNPEVEALRKEAAAIRDELQAYRHN
B2: SEQ ID NO 946 (designed binder)
chain: MGSWYEFDIRLEAIKYRLSALGGSEAELAAFEKEIAAFESELQAYKGKGNPEVEYLRKKAAVIRSMLQAYRHN
B3: SEQ ID NO 948 (designed binder)
chain: MGSWWEFNVRLQAIKYRLSALGGSEAELAAFEKEIAAFESELQAYKGKGNPEVEDLRKTAAHIRWQLQAYRHN
B4: SEQ ID NO 947 (designed binder)
chain: MGSWWEFRIRLEAIWYRLHALGGSEAELAAFEKEIAAFESELQAYKGKGNPEVEDLRIFAANIRSKLQAYRHN
B5: SEQ ID NO 922 (designed binder)
chain: MGSWWGFKVNLAWIKWKLEALGGSEAELAYFELWIANFEHSLQEYKGKGNPEVEALRKEAAAIRDELQAYRHN
B6: SEQ ID NO 925 (designed binder)
chain: MGSWKTFKIELAGIKLELEALGGSEAELAGFENAIAQFESSLQYYKGKGNPEVEALRKEAAAIRDELQAYRHN
B7: SEQ ID NO 926 (designed binder)
chain: MGSWWEFKVRLSAIQYRLYALGGSEAELAAFEKEIAAFESELQAYKGKGNPEVEALREQAALIRTILQAYRHN
B8: SEQ ID NO 935 (designed binder)
chain: MGSWIEFWVRLNAILYRLYALGGSEAELAAFEKEIAAFESELQAYKGKGNPEVEALRDSAAEIRRWLQAYRHN
B9: SEQ ID NO 929 (designed binder)
chain: MGSWWEFKIRLYAIEYRLNALGGSEAELAAFEKEIAAFESELQAYKGKGNPEVEALRAKAAQIRYNLQAYRHN
B10: SEQ ID NO 933 (designed binder)
chain: MGSWWEFKVRLRAIEYRLSALGGSEAELAAFEKEIAAFESELQAYKGKGNPEVEELRVLAASIRIHLQAYRHN
B11: SEQ ID NO 927 (designed binder)
chain: MGSWWEFHIRLHAINYRLAALGGSEAELAAFEKEIAAFESELQAYKGKGNPEVEALRELAAKIRGDLQAYRHN
B12: SEQ ID NO 950 (designed binder)
chain: MGSWWEFNMRLSAIKYRLYALGGSEAELAAFEKEIAAFESELQAYKGKGNPEVEILRRLAADIRERLQAYRHN
B13: SEQ ID NO 949 (designed binder)
chain: MGSWWEFNVRLSAIRYRLLALGGSEAELAAFEKEIAAFESELQAYKGKGNPEVEDLRASAAQIRAMLQAYRHN
B14: SEQ ID NO 928 (designed binder)
chain: MGSWWEFQVRLRAIQYRLNALGGSEAELAAFEKEIAAFESELQAYKGKGNPEVEYLRGLAAQIRFDLQAYRHN
B15: SEQ ID NO 939 (designed binder)
chain: MGSWWEFHVRLRAIEYRLEALGGSEAELAAFEKEIAAFESELQAYKGKGNPEVEQLRLIAANIRHLLQAYRHN
B16: SEQ ID NO 942 (designed binder)
chain: MGSWWEFQVRLAAIEYRLKALGGSEAELAAFEKEIAAFESELQAYKGKGNPEVENLRQLAAHIRSVLQAYRHN
B17: SEQ ID NO 940 (designed binder)
chain: MGSWWEFHVRLKAIEYRLLALGGSEAELAAFEKEIAAFESELQAYKGKGNPEVEDLRYIAANIRQLLQAYRHN
B18: SEQ ID NO 943 (designed binder)
chain: MGSWWEFQVRLSAIEYRLTALGGSEAELAAFEKEIAAFESELQAYKGKGNPEVEELRQKAARIRSLLQAYRHN
B19: SEQ ID NO 934 (designed binder)
chain: MGSWSEFWFRLHAILYRLQALGGSEAELAAFEKEIAAFESELQAYKGKGNPEVETLRDAAAEIRVALQAYRHN
B20: SEQ ID NO 936 (designed binder)
chain: MGSWVEFWIRLNAIKYRLLALGGSEAELAAFEKEIAAFESELQAYKGKGNPEVEKLRQDAADIRELLQAYRHN
B21: SEQ ID NO 938 (designed binder)
chain: MGSWWEFYLRLRAISYRLQALGGSEAELAAFEKEIAAFESELQAYKGKGNPEVEGLRQDAAEIRKLLQAYRHN
B22: SEQ ID NO 937 (designed binder)
chain: MGSWTEFWWRLSAIVYRLNALGGSEAELAAFEKEIAAFESELQAYKGKGNPEVEELRDMAADIRSLLQAYRHN
B23: SEQ ID NO 920 (designed binder)
chain: MGSWYEFRWRLHAIWLRLGALGGSEAELAAFEKEIAAFESELQAYKGKGNPEVEWLRQDAAQIRYILQAYRHN
B24: SEQ ID NO 921 (designed binder)
chain: MGSWHEFLRRLLAIEMRLYALGGSEAELAAFEKEIAAFESELQAYKGKGNPEVEHLRVRAASIRQMLQAYRHN
B25: SEQ ID NO 924 (designed binder)
chain: MGSWLVFKDELAGIKNYLEALGGSEAELATFEQDIAWFEQWLQNYKGKGNPEVEALRKEAAAIRDELQAYRHN
B26: SEQ ID NO 930 (designed binder)
chain: MGSWFEFNIRLHAIEYRLKALGGSEAELAAFEKEIAAFESELQAYKGKGNPEVEELRNYAASIRKLLQAYRHN
B27: SEQ ID NO 931 (designed binder)
chain: MGSWFEFEIRLRAIEYRLSALGGSEAELAAFEKEIAAFESELQAYKGKGNPEVEKLRELAAEIRYALQAYRHN
B28: SEQ ID NO 944 (designed binder)
chain: MGSWWEFNIRLHAIDYRLKALGGSEAELAAFEKEIAAFESELQAYKGKGNPEVELLREKAAQIRAQLQAYRHN
B29: SEQ ID NO 932 (designed binder)
chain: MGSWFEFKIRLYAIQYRLSALGGSEAELAAFEKEIAAFESELQAYKGKGNPEVEELRNLAAEIRHSLQAYRHN
B30: SEQ ID NO 945 (designed binder)
chain: MGSWWEFRVRLEAIDYRLKALGGSEAELAAFEKEIAAFESELQAYKGKGNPEVEYLRMKAATIRAILQAYRHN

This assay addresses HER2 (Homo sapiens (Human), UniProt P04626 23-652). Kind of assay: phage ELISA, A450 target/A450 IgG1-Fc. In short, it runs like this:
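Phage rescued with VCSM13 helper phage from phagemid colonies picked from panning output were tested on plates coated with goat anti-human IgG1-Fc antibody that carried either recombinant human target or IgG1-Fc. Bound phage were detected with HRP-conjugated anti-M13 antibody at 450 nm. The ELISA ratio is target absorbance over IgG1-Fc absorbance, averaged across all screened wells holding the clone.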
A general note: An ELISA detects its analyte on a solid surface through an enzyme-linked reagent.
In turn, B1 displayed an ELISA_avg of 7.91 ratio.

For B2, the ELISA_avg worked out at 5.35 ratio. Turning to B3, the ELISA_avg amounted to 5.23 ratio.

With B4, the ELISA_avg was found to be 8.04 ratio. The same measure for B5: 8.69 ratio; for B6: 4.95 ratio. Molecule B7 had an ELISA_avg of 5.17 ratio.

With B8, the ELISA_avg worked out at 3.91 ratio. With B9, the ELISA_avg was 4.49 ratio.

As for B10, the ELISA_avg worked out at 10.1 ratio.

The molecule B11 yielded an ELISA_avg of 11.9 ratio. Molecule B12 yielded an ELISA_avg of 3.08 ratio. In turn, B13 registered an ELISA_avg of 6.73 ratio.

The molecule B14 came in with an ELISA_avg of 14.4 ratio.

Turning to B15, the ELISA_avg came to 5.48 ratio. The same measure for B16: 6.33 ratio; for B17: 4.56 ratio.

B18 gave an ELISA_avg of 9.61 ratio. Consider B19, for which the ELISA_avg came to 14.8 ratio.

B20: the ELISA_avg is 10.6 ratio. Turning to B21, the ELISA_avg is 5.1 ratio. Regarding B22, the ELISA_avg amounted to 5.76 ratio.

B23 had an ELISA_avg of 7.18 ratio. The same measure for B24: 8.15 ratio; for B25: 3.28 ratio; for B26: 7.86 ratio.

Consider B27, for which the ELISA_avg was determined as 7.75 ratio. As for B28, the ELISA_avg was 9.75 ratio. B29 yielded an ELISA_avg of 13.1 ratio. Molecule B30 came in with an ELISA_avg of 6.82 ratio.

Source of the values: patent US20230125550A1 (ARCELLX, published 2023).
